Reference: US20210395354A1 (AMPSOURCE BIOPHARMA SHANGHAI, published 2021)

B1: mouse monoclonal antibody #56 (antibody, mouse IgG1, V domains shown)
VH: QVQLKESGPGLVAPSQSLSITCTVSGFSLTGYGVNWVRQPPGKGLEWLGMIWADGDTDYNSALKSRLSISKDNSKSQVFLKVNNLQTDDTARYYCARDSYYYGYNFFDVWGAGTTVTVSS
VL: DIQMTQTTSSLSASLGDRVTISCRASQDISNYLNWYQQKPEGTLKLLIYYTSRLHSGVPSRFSGSGSGTDYSLTISSLEQEDIATYFCQQGNTLPRTFGGGTKLEIK
notes: also called Chen 56; antibody secreted by hybridoma A56
B2: humanized antibody AB5C6 (antibody, V domains shown)
VH: QVQLKESGPGLVAPSETLSITCTVSGFSLTGYGVNWVRQPPGKGLEWLGMIWADGDTDYNSALKSRLTISKDNSKSQVFLKVNNLQTDDTARYYCARDSYYYGYNFFDVWGAGTTVTVSS
VL: DIQMTQSPSSLSASVGDRVTISCRASQDISNYLNWYQQKPEGTLKLLIYYTSRLHSGVPSRFSGSGSGTDYSLTISSLQQEDIATYFCQQGNTLPRTFGGGTKLEIK
notes: Humanized from #56 by surface remodeling
B3: human mouse chimeric antibody AB5C1 (antibody, V domains shown)
VH: QVQLKESGPGLVAPSQSLSITCTVSGFSLTGYGVNWVRQPPGKGLEWLGMIWADGDTDYNSALKSRLSISKDNSKSQVFLKVNNLQTDDTARYYCARDSYYYGYNFFDVWGAGTTVTVSS
VL: DIQMTQTTSSLSASLGDRVTISCRASQDISNYLNWYQQKPEGTLKLLIYYTSRLHSGVPSRFSGSGSGTDYSLTISSLEQEDIATYFCQQGNTLPRTFGGGTKLEIK
B4: humanized antibody AB5C2 (antibody, V domains shown)
VH: QVQLQESGPGLVKPSETLSLTCTVSGFSLTGYGVNWVRQPPGKGLEWLGMIWADGDTDYNSALKSRVTISKDTSKNQFSLKLSSVTAADTARYYCARDSYYYGYNFFDVWGAGTTVTVSS
VL: DIQMTQSPSSLSASVGDRVTITCRASQDISNYLNWYQQKPGKAPKLLIYYTSRLHSGVPSRFSGSGSGTDFTFTISSLQPEDIATYFCQQGNTLPRTFGGGTKVEIK
notes: Humanized from #56 by CDR transplantation
B5: mouse monoclonal antibody #2 (antibody, mouse IgG1, V domains shown)
VH: QVQLQQSGPELARPGASVKLSCKASGYTFTDYWMQWVKQRPGQGLEWIGTIYPGDGYTRYIQKFKGRATLTADKSSSTAYMQLNSLASEDSAVYYCARRAAYYTMDYWGQGTSVTVSS
VL: DIVMTQSHKFMSTSVGDRVSITCKASQDVNTAVAWYQQKPGQSPKLLIYWASTRHTGVPDRFTGSGSGTDYILTISSVQAEDLALYYCQQHYSSPWTFGGGTKLEIT
notes: also called Chen 2; antibody secreted by hybridoma A2
B6: humanized antibody AB5D6 (antibody, V domains shown)
VH: QVQLQQSGPEVAKPGASVKLSCKASGYTFTDYWMQWVKQRPGQGLEWIGTIYPGDGYTRYIQKFKGRATLTADKSTSTAYMELNSLASEDSAVYYCARRAAYYTMDYWGQGTSVTVSS
VL: DIVMTQSHKFMSTSVGDRVTITCKASQDVNTAVAWYQQKPGQSPKLLIYWASTRHTGVPDRFSGSGSGTDYILTISSVQAEDLALYYCQQHYSSPWTFGGGTKLEIT
notes: Humanized from #2 by surface remodeling
B7: humanized antibody AB5C4 (antibody, V domains shown)
VH: QVQLQESGPGLVKPSETLSLTCTVSGFSLTGYGWGWVRQPPGKGLEWIGSIWADGDTYYNPSLKSRVTISVDTSKNQFSLKLSSVTAADTAVYYCARDSYYYGYNFFDVWGQGTMVTVSS
VL: DIQMTQSPSSLSASVGDRVTITCQASQDISNYLNWYQQKPGKAPKLLIYYTSNLESGVPSRFSGSGSGTDFTFTISSLQPEDIATYYCQQGNTLPRTFGGGTKVEIK
notes: as for B4
B8: humanized antibody AB5C3 (antibody, V domains shown)
VH: QVQLQESGPGLVKPSETLSLTCTVSGFSLTGYGWGWIRQPPGKGLEWIGSIWADGDTYYNPSLKSRVTISVDTSKNQFSLKLSSVTAADTAVYYCARDSYYYGYNFFDVWGQGTMVTVSS
VL: DIQMTQSPSSLSASVGDRVTITCQASQDISNYLNWYQQKPGKAPKLLIYYTSNLETGVPSRFSGSGSGTDFTFTISSLQPEDIATYYCQQGNTLPRTFGGGTKVEIK
notes: as for B4
B9: humanized antibody AB5C5 (antibody, V domains shown)
VH: QVQLQESGPGLVKPSETLSLTCTVSGFSLTGYGWGWVRQPPGKGLEWLGSIWADGDTYYNPSLKSRVTISVDTSKNQFSLKLSSVTAADTAVYYCARDSYYYGYNFFDVWGQGTMVTVSS
VL: DIQMTQSPSSLSASVGDRVTITCQASQDISNYLNWYQQKPGKAPKLLIYYTSNLESGVPSRFSGSGSGTDFTFTISSLQPEDIATYFCQQGNTLPRTFGGGTKVEIK
notes: as for B4
B10: human mouse chimeric antibody AB5D1 (antibody, V domains shown)
VH: QVQLQQSGPELARPGASVKLSCKASGYTFTDYWMQWVKQRPGQGLEWIGTIYPGDGYTRYIQKFKGRATLTADKSSSTAYMQLNSLASEDSAVYYCARRAAYYTMDYWGQGTSVTVSS
VL: DIVMTQSHKFMSTSVGDRVSITCKASQDVNTAVAWYQQKPGQSPKLLIYWASTRHTGVPDRFTGSGSGTDYILTISSVQAEDLALYYCQQHYSSPWTFGGGTKLEIT
B11: humanized antibody AB5D2 (antibody, V domains shown)
VH: QVQLVQSGAEVKKPGASVKVSCKASGYTFTDYWMQWVKQRPGQGLEWIGTIYPGDGYTRYIQKFKGRVTMTRDTSTSTVYMELSSLRSEDSAVYYCARRAAYYTMDYWGQGTLVTVSS
VL: DIQMTQSPSSLSASVGDRVTITCKASQDVNTAVAWYQQKPGKAPKLLIYWASTRHTGVPDRFTGSGSGTDYTLTISSLQPEDLALYYCQQHYSSPWTFGGGTKVEIT
notes: Humanized from #2 by CDR transplantation
B12: humanized antibody AB5D4 (antibody, V domains shown)
VH: QVQLVQSGAEVKKPGASVKVSCKASGYTFTDYWMHWVKQAPGQGLEWMGIIYPGDGYTSYAQKFQGRVTMTRDTSTSTVYMELSSLRSEDTAVYYCARRAAYYTMDYWGQGTLVTVSS
VL: DIQMTQSPSSLSASVGDRVTITCRASQDVNTALAWYQQKPGKAPKLLLYWASRLETGVPSRFSGSGSGTDYTLTISSLQPEDFATYYCQQHYSSPWTFGGGTKVEIT
notes: as for B11
B13: humanized antibody AB5D3 (antibody, V domains shown)
VH: QVQLVQSGAEVKKPGASVKVSCKASGYTFTDYWMHWVRQAPGQGLEWMGIIYPGDGYTSYAQKFQGRVTMTRDTSTSTVYMELSSLRSEDTAVYYCARRAAYYTMDYWGQGTLVTVSS
VL: DIQMTQSPSSLSASVGDRVTITCRASQDVNTALAWYQQKPGKAPKLLLYWASRLESGVPSRFSGSGSGTDYTLTISSLQPEDFATYYCQQHYSSPWTFGGGTKVEIT
notes: as for B11
B14: humanized antibody AB5D5 (antibody, V domains shown)
VH: QVQLVQSGAEVKKPGASVKVSCKASGYTFTDYWMHWVKQAPGQGLEWMGIIYPGDGYTSYIQKFQGRVTMTRDTSTSTVYMELSSLRSEDTAVYYCARRAAYYTMDYWGQGTLVTVSS
VL: DIQMTQSPSSLSASVGDRVTITCRASQDVNTALAWYQQKPGKAPKLLLYWASRLETGVPSRFSGSGSGTDYTLTISSLQPEDLATYYCQQHYSSPWTFGGGTKVEIT
notes: as for B11

Tests used:
[1] = molecular target: T1, human nerve growth factor (hNGF) (human, UniProt P01138 122-241); assay: cell-based or functional assay
T1 sequence (P01138 122-241 limits assumed): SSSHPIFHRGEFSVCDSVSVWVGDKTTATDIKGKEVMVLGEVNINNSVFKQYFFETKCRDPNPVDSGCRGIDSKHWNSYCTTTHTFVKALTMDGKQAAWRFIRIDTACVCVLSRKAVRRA

human NGF (his tag) [2] = molecular target: T2, human NGF (his tag) (human, UniProt P01138 122-241, limits assumed); assay: BLI (ForteBio Octet), human NGF (his tag) on Ni-NTA sensor
T2 construct: Captured on Ni-NTA sensors in the ForteBio Octet assay; also called hNGF; antigen; not shown: his tag
T2 sequence (P01138 122-241 limits assumed): as above
Procedure: (§1) The binding affinity constants of purified mouse monoclonal antibody #56 and #2 with antigens were determined by the bio film interference technique (fortebio octet Red & QK system, Pall company). […] After the kinetic fitting curve of affinity analysis, the affinity constant was calculated by analyzing the above data.

human NGF (his tag) [3] = molecular target: T2, human NGF (his tag); assay: BLI (ForteBio Octet), method of example 4
Procedure: as §1

[4] = molecular target: T1, human nerve growth factor (hNGF); assay: indirect ELISA on coated hNGF (0.2 µg/ml), detection with HRP anti-mouse IgG, OD 450 nm
Procedure: Indirect ELISA was used to determine the binding titers of purified mouse antibody #2, #56 and #98 to hNGF. Among them, each pore was coated with 100 μl 0.2 μg/ml hNGF (Corning company) and placed at 4° C. for 16-20 h. The PBS buffer in 96 well plate was sucked off, washed with PBST (pH 7.4, PBS containing 0.05% Tween 20) buffer once, then 200 μL/well PBST/1% skimmed milk powder was added, incubated at room temperature for 1 h and sealed. Remove the blocking solution, wash the plate with PBST buffer for 3 times, add PBST/1% skimmed milk powder to dilute to the appropriate concentration of anti-hngf mouse antibody to be tested, 100 μL/well, incubate at room temperature for 1.5 h. Remove the reaction system, wash the plate with PBST three times, and then use the HRP labeled Sheep anti mouse IgG polyclonal antibody (Jackson Laboratory) diluted with PBST/1% skimmed milk powder (dilution ratio 1:5000) at 50 μL/well as the detection antibody, and incubate at room temperature for 1 h. After 3 times of PBST washing, add 100 μL/well TMB and incubate at room temperature for 10-30 min. Add 50 μL/pore 0.2 M sulfuric acid to stop the reaction.

Binder	IC50 (read off the curve), NGF-dependent TF-1 cell proliferation [1]	Kd (human NGF (his tag) [2])	koff (human NGF (his tag) [2])	kon (human NGF (his tag) [2])	Kd (human NGF (his tag) [3])	koff (human NGF (his tag) [3])	kon (human NGF (his tag) [3])	EC50 (read off the curve) [4]
B1	~0.4 mg/L	0.0123 nM	8.89e-06 s⁻¹	723000 M⁻¹ s⁻¹				
B2	~0.4 mg/L				0.0102 nM	1.61e-05 s⁻¹	1.59e+06 M⁻¹ s⁻¹	
B3	~0.9 mg/L				0.0299 nM	5.4e-05 s⁻¹	1.81e+06 M⁻¹ s⁻¹	
B4	~0.4 mg/L				0.0013 nM	2.16e-06 s⁻¹	1.66e+06 M⁻¹ s⁻¹	
B5		0.0159 nM	2.92e-05 s⁻¹	1.83e+06 M⁻¹ s⁻¹				~0.007 mg/L
B6					0.0157 nM	2.22e-05 s⁻¹	1.41e+06 M⁻¹ s⁻¹	
B7					0.0153 nM	2.23e-05 s⁻¹	1.46e+06 M⁻¹ s⁻¹	
B8					0.00755 nM	9.87e-06 s⁻¹	1.31e+06 M⁻¹ s⁻¹	
B9					0.0089 nM	1.59e-05 s⁻¹	1.78e+06 M⁻¹ s⁻¹	
B10					0.0106 nM	1.55e-05 s⁻¹	1.46e+06 M⁻¹ s⁻¹	
B11					0.00633 nM	7.94e-06 s⁻¹	1.25e+06 M⁻¹ s⁻¹	
B12					0.0182 nM	3.25e-05 s⁻¹	1.78e+06 M⁻¹ s⁻¹	
B13					0.0129 nM	1.92e-05 s⁻¹	1.49e+06 M⁻¹ s⁻¹	
B14					0.0154 nM	1.89e-05 s⁻¹	1.23e+06 M⁻¹ s⁻¹	
